Results taken from patent US12583888B2, “Bi-specific extracellular matrix binding peptides and methods of use thereof” (University of Tartu, priority 2019, dated 2026).

Legend:
P13 tumor = details: i.v. equimolar mix, 2 h circulation
From the text: (§1) In vivo play-off was used to evaluate systemic homing of peptide phage to xenograft tumor models. The in vitro selected candidate TNC-C binding peptides, phages displaying published tumor homing peptides, and control peptides were amplified and purified by precipitation with PEG-8000 (Sigma-Aldrich, St. Louis, MO, USA), followed by CsCl2 gradient ultracentrifugation and dialysis. The amplified phage peptides were pooled in equimolar quantities, and injected intravenously (final 1×10^10 pfu in 200 μl PBS) in tumor-bearing mice for two hour circulation, after which mice were anesthetized with 2.5% avertin and intracardially perfused with DMEM intracardially. The tumors and organs were collected in lysogeny broth (LB)+1% NP40, and the tissues were homogenized using a hand-held homogenizer for phage peptide rescue. Phages in the tissue lysates were amplified in E. coli, purified by precipitation with PEG-8000 and DNA was extracted using a DNA extraction kit (High Pure PCR Template Preparation Kit; Roche, Basel, Switzerland). Next-generation sequencing of phage genomic DNA evaluated the representation of each phage in input mixture, in tumor and control organs with Ion Torrent system (Thermo Fisher Scientific, Waltham, MA, USA). The next generation deep sequencing of phage library was done using Ion Torrent according to the manufacturer's protocol with slight modification. The FASTQ data from Ion Torrent was processed by a custom python script that identified the barcodes, constant flanking residues, and extracted the reads of the correct length.

[1] = system: PC3 prostate carcinoma xenografts; details: i.v. equimolar mix, 2 h circulation
From the text: as §1

WT-GBM tumor = details: i.v. equimolar mix, 2 h circulation
From the text: as §1

P3 stem cell-like tumor = details: i.v. equimolar mix, 2 h circulation
From the text: as §1

U87-MG glioblastoma = details: i.v. equimolar mix, 2 h circulation
From the text: as §1

normal brain = details: i.v. equimolar mix, 2 h circulation
From the text: as §1

NRP-1 b1b2 domain = target: T1, NRP-1 b1b2 domain (Homo sapiens, UniProt O14786); test: PL1 phage binding to recombinant control protein NRP-1; details: phage-displayed peptide
T1 construct: His-tagged NRP-1 b1b2 domain were used as positive control; His tag; made in house
T1 sequence (O14786 273-586 limits assumed): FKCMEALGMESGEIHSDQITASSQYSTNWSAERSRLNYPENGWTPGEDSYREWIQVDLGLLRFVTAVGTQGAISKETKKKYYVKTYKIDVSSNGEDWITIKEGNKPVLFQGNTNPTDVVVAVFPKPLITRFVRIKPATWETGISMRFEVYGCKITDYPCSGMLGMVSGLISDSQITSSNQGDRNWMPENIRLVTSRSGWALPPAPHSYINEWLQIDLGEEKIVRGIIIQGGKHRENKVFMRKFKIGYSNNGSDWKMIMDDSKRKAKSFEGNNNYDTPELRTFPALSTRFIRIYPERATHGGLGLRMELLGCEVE
Description: (§2) To identify bispecific peptides that interact with both TNC-C and FN-EDB, cross screens were performed on both targets. During the first round of selection, microtiter plates coated with 20 μg/ml recombinant purified TNC-C were blocked with PBS containing 1% bovine serum albumin (BSA), followed by incubation with 5×10^8 pfu of phages in PBS at 4° C. overnight, by washes to remove background, and by phage rescue and amplification in BLT5403 strain of E. coli (Novagen, EMD Biosciences, MA, USA) (Teesalu et al., Methods Enzymol. 503:35-56 (2012)). The following rounds of biopanning were carried on Ni-NTA Magnetic Agarose Beads (QIAGEN, Hilden, Germany) coated with hexahistidine-tagged FN-EDB (3 μg/μl beads) at room temperature. After 5 rounds of selection, a set of random clones was sequenced, and individual peptide-phage clones and control (G7 peptide-displaying or insertless) phages were incubated with FN-EDB and TNC-C-coated magnetic beads. RPARPAR phage (SEQ ID NO:5) and His-tagged NRP-1 b1b2 domain were used as positive control (Teesalu et al., Proc. Natl. Acad. Sci. U.S.A 106:16157-62 (2009)). To address the specificity of the peptide phage binding to the FN-EDB and TNC-C, the protein-coated beads were pre-incubated with 20 μg/ml blocking rabbit polyclonal antibodies.

FN-EDB and TNC-C [2] = test: Peptide-phage binding to FN-EDB- and TNC-C-coated magnetic beads; details: phage-displayed peptide
Description: as §2

FN-EDB and TNC-C [3] = test: Cell-free peptide binding assay (immobilized FAM-peptide, His-tagged protein, ELISA)
Description: The FAM-labeled peptides were coated on ELISA plates (Nunc Maxisorp, Thermo Fisher Scientific Inc., MA, USA), blocked with PBS containing 1% BSA, and incubated with recombinant proteins at 2 μg/well in PBS for 6 h. The protein was detected using an anti-His-tag antibody, followed by horseradish peroxidase-conjugated secondary antibody, chromogenic reaction, and measurement of absorbance at 450 nm with a microplate reader (Tecan Austria GmbH, Gradig, Austria).

[4] = system: Neuropilin 1 b1b2 domain (NRP1) and Fn-EDB; test: PL2 phage binding to purified NRP1 together with Fn-EDB
Description: For cell-free binding studies using individually amplified phage clones; phage was incubated with Fn-EDB coated magnetic beads as described above. RPARPAR phage on NRP-1-coated beads was used as a positive control (Teesalu et al., 2009), Nucleolin (NCL) and Tenascin C-C domain (TNC-C) were used as negative control. Phage clones displaying heptaglycine peptide (GGGGGGG, G7 (SEQ ID NO:20)) or insert less phage clones were used as negative controls.

Row | Substance | Representation of phage in tumors (fold G7 control phage), P13 (P13 tumor) [fold] | Representation of phage in tumors (fold G7 control phage), PC3 [1] [fold] | Representation of phage in tumors (fold G7 control phage), WT-GBM (WT-GBM tumor) [fold] | Representation of phage in tumors (fold G7 control phage), P3 SCL (P3 stem cell-like tumor) [fold] | Representation of phage in tumors (fold G7 control phage), U87-MG (U87-MG glioblastoma) [fold] | Representation of phage in control brain tissue (fold G7 control phage), Norm. brain (normal brain) [fold] | interaction of phage with recombinant control protein NRP-1 (NRP-1 b1b2 domain) | Binding Specificity (FN-EDB and TNC-C [2]) | binding to FN-EDB and TNC-C on phage and as synthetic FAM-labeled peptide (FN-EDB and TNC-C [3]) | binding of phage-displayed peptide to Fn-EDB and NRP1 [4]
1 | AGRGRLVRAKLAAALE | 0.1 | 0.3 | 23.9 | 0.4 | 0.2 | 0.0 |  |  |  | 
2 | AGVGRLRRAKLAAALE | 0.9 | 1.4 | 2.3 | 0.9 | 1.0 | 0.2 |  |  |  | 
3 | CAGRGRLVRC | 0.4 | 0.4 | 0.9 | 0.2 | 0.1 | 0.0 |  |  |  | 
4 | CRGVLRRAKLAAALE | 0.4 | 0.9 | 1.6 | 0.4 | 0.7 | 0.1 |  |  |  | 
5 | CSRRGILRAKPAAALE | 0.8 | 1.2 | 1.5 | 0.9 | 1.1 | 0.1 |  |  |  | 
6 | GGGGGGG [reference compound] | 1.0 | 1.0 | 1.0 | 1.0 | 1.0 | 1 |  |  |  | 
7 | GRLTRVR | 0.5 | 0.9 | 1.9 | 0.5 | 0.9 | 0.1 |  |  |  | 
8 | PPRRGLIKLKTS [PL1] |  |  |  |  |  |  | did not interact | TNC-C + FN-EDB | retained the ability to bind to both FN-EDB and TNC-C | 
9 | PPRRGLIKLKTSSNTKENSVVASLRP [PL5] |  |  |  |  |  |  |  | TNC-C + FN-EDB |  | 
10 | RGRLVRA | 0.4 | 1.8 | 3 | 0.3 | 0.8 | 0.1 |  |  |  | 
11 | RGRLVRAK | 0.1 | 3.0 | 23.8 | 0.3 | 0.5 | 0.2 |  |  |  | 
12 | RRLVRVA | 0.4 | 0.9 | 1.4 | 0.3 | 0.6 | 0.1 |  |  |  | 
13 | TSKQNSR [PL2] |  |  |  |  |  |  |  |  |  | bind specifically to both Fn-EDB and NRP1
14 | VGRVRFSRKLAAALE | 0.5 | 1.2 | 2.5 | 0.4 | 0.7 | 0.1 |  |  |  | 
